Experimental data from PMC314469, “Protein Interaction Networks by Proteome Peptide Scanning” (PLoS Biology, 2004).

T1: Boi1 SH3 (BOI1_YEAST), P38041
T1 chain: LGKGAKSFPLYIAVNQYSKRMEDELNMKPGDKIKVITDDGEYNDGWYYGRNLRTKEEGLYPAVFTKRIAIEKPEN

T2: Boi2 SH3 (BOI2_YEAST), P39969
T2 chain: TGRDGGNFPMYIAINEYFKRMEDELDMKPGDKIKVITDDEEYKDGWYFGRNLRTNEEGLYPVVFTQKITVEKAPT

T3: Rvs167 SH3 (RV167_YEAST), P39743
T3 chain: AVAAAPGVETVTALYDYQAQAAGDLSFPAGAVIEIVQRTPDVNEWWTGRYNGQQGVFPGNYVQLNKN

T4: Yfr024 SH3 (LSB3_YEAST), P43603
T4 chain: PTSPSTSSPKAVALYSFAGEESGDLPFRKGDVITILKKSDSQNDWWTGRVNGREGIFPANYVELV

T5: Yhr016c SH3 (YSC84_YEAST), P32793
T5 chain: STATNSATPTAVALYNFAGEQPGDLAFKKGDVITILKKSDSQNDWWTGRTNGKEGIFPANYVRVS

B1: YPR055W 308-321 (peptide)
chain: TQAPLAPSRNQENE
B2: YIR023W 846-859 (peptide)
chain: TPLPFAPNKSSKKT
B3: YBR284W 102-115 (peptide)
chain: TPPPVEPLKTKDLA
B4: YDL164C 384-397 (peptide)
chain: TLRPGIPLKPMLAK
B5: YDR464W 568-581 (peptide)
chain: TEVPSKPKKPSKTE
B6: YDL113C 210-223 (peptide)
chain: TLIPPIPEKQSIKN
B7: YBR140C 1667-1680 (peptide)
chain: TNYPVNPEKHEMDK
B8: YDL171C 572-585 (peptide)
chain: TNPPIDPIREANVM
B9: YIL152W 34-47 (peptide)
chain: TRRPHHPLKQQSTN
B10: YBR208C 872-885 (peptide)
chain: TPAPNLPEKTRLAL
B11: YOL090W 24-37 (peptide)
chain: TGLPKKPLKTIRLV
B12: YOR191W 815-828 (peptide)
chain: TGFPPTPLKREGVG
B13: YDL029W 109-122 (peptide)
chain: TEPPMNPLKNREKM
B14: YOR367W 153-166 (peptide)
chain: TKKPRPPVKSKPKH
B15: YKL148C 467-480 (peptide)
chain: TLQPGLPHKPLPSD
B16: YJL045W 461-474 (peptide)
chain: TLQPGLPHKPLASN
B17: YER068W 519-532 (peptide)
chain: TKTPTQPIRLQTVS
B18: YNL166C 314-327 (peptide)
chain: TRRPTNPFRVISVS
B19: YLR289W 228-241 (peptide)
chain: TGRPDKPFRALLVD
B20: YGL207W 463-476 (peptide)
chain: TKVPSKPDRNSKIL
B21: YMR042W 23-36 (peptide)
chain: TNEPTKPIRRLSTP
B22: YHL007C 507-520 (peptide)
chain: THAPTTPNRTSPNR

Target: T1, Boi1 SH3 (BOI1_YEAST), P38041
Assay: SPOT array

normalised SPOT signal, Boehringer light units (BLU); mean over the file's lines of this peptide | Binder
31.7 | B1
181 | B2
94.4 | B3
105 | B4
361 | B5
82.1 | B6
82.1 | B7
136 | B8
87.5 | B9
82.2 | B10
57.7 | B11
7.5 | B12
87.1 | B13
61.5 | B14
82.6 | B15
91.4 | B16
139 | B17
34.6 | B18
110 | B19
152 | B20
111 | B21
74.3 | B22

Target: T2, Boi2 SH3 (BOI2_YEAST), P39969
Assay: SPOT array

normalised SPOT signal, Boehringer light units (BLU); mean over the file's lines of this peptide | Binder
4.1 | B1
50.4 | B2
43.4 | B3
49.9 | B4
39.9 | B5
37.5 | B6
32.3 | B7
55.4 | B8
26.4 | B9
38.3 | B10
74.6 | B11
54 | B12
55.1 | B13
25.1 | B14
53.3 | B15
62.6 | B16
60.2 | B17
49 | B18
47.3 | B19
27.3 | B20
0 | B21
14.4 | B22

Target: T3, Rvs167 SH3 (RV167_YEAST), P39743
Assay: SPOT array

normalised SPOT signal, Boehringer light units (BLU); mean over the file's lines of this peptide | Binder
38 | B1
28.9 | B2
56.7 | B3
118 | B4
75.4 | B5
38 | B6
62.1 | B7
27.6 | B8
70.4 | B9
65.7 | B10
78.4 | B11
58.1 | B12
147 | B13
54.9 | B14
74.3 | B15
16.3 | B16
104 | B17
218 | B18
789 | B19
44 | B20
46.4 | B21
552 | B22

Target: T4, Yfr024 SH3 (LSB3_YEAST), P43603
Assay: SPOT array

normalised SPOT signal, Boehringer light units (BLU); mean over the file's lines of this peptide | Binder
1200 | B1
315 | B2
36.2 | B3
303 | B4
3310 | B5
259 | B6
0 | B7
14.7 | B8
411 | B9
6030 | B10
746 | B11
1730 | B12
648 | B13
344 | B14
295 | B15
3.9 | B16
1360 | B17
1890 | B18
5660 | B19
4410 | B20
4980 | B21
14600 | B22

Target: T5, Yhr016c SH3 (YSC84_YEAST), P32793
Assay: SPOT array

normalised SPOT signal, Boehringer light units (BLU); mean over the file's lines of this peptide | Binder
624 | B1
100 | B2
146 | B3
229 | B4
67.2 | B5
324 | B6
136 | B7
110 | B8
154 | B9
221 | B10
144 | B11
430 | B12
125 | B13
127 | B14
352 | B15
86.1 | B16
234 | B17
566 | B18
656 | B19
416 | B20
1280 | B21
4050 | B22
